Test results: US9695426B2, “Biofuel production by recombinant microorganisms” (The Regents of the University of California, priority 2007, dated 2017)

How the values were obtained:
[1] = tested on: wild-type E. coli strain (JCL16); assay: isobutanol tolerance of E. coli
From the text: Non-native hosts such as E. coli lack tolerance to high alcohols. Isobutanol is as toxic as 1-butanol to microorganisms, and the native 1-butanol producers can tolerate 1-butanol concentration up to about 2%. To show the potential for improving tolerance, in vitro evolution by the sequential transfer of cultures was used to enrich for strains with mutations which increase isobutanol tolerance. […] Other strategies such as gTME can be used for further improvement of tolerance.

KS145 [2] = assay: 1-Propanol and 1-butanol production with the selected CimA mutants (citramalate pathway); assay type: cell-based, E. coli; conditions: ΔilvI ΔilvB strain with pSA63 and pSA55, after 64 hr
KS145 [3] = assay: as above; assay type: cell-based, E. coli; conditions: 30° C. for 40 h
Procedure: Medium and cultivation for 1-propanol and 1-butanol production. M9 medium containing 36 g/L glucose, 5 g/L yeast extract, 100 μg/ml ampicillin, 30 μg/ml kanamycin and 1000th dilution of Trace Metal Mix A5 (2.86 g H3BO3, 1.81 g MnCl2.4H2O, 0.222 g ZnSO4.7H2O, 0.39 g Na2MoO4.2H2O, 0.079 g CuSO4.5H2O, 49.4 mg Co(NO3)2.6H2O per liter water) was used for cell growth. Preculture in test tubes containing 3 ml of medium was performed at 37° C. overnight on a rotary shaker (250 rpm). Overnight culture was diluted 1:100 into 20 ml of fresh medium in a 250 ml screw cap conical flask. Cells were grown at 37° C. for 3 hr, followed by adding 0.1 mM IPTG. Cultivation was performed at 30° C. on a rotary shaker (250 rpm). Gas chromatography-flame ionization detector and high-performance liquid chromatography analyses were performed.
The citramalate pathway was then used to enhance the production of 1-propanol and 1-butanol (FIG. 13). An E. coli strain (KS145) auxotrophic for L-isoleucine, leucine, and valine (ΔilvI and ΔilvB). was transformed with pSA63 (or other plasmids containing variants of cimA) and pSA55 (PLlacO1::kivd-ADH2). The deletions of ilvI and ilvB (FIG. 13) were introduced for two reasons. First, the deletions eliminated the native substrate, 2-ketoisovalerate, for the leuABCD pathway, thus reducing the competitive substrate inhibition. Second, these deletions eliminated the production of 2-keto-3-methyl-valerate and 2-keto-4-methyl-pentanoate, which are competing substrates for Kivd. The strain expressing the wild-type cimA gene (KS145/pSA63/pSA55) produced 302 mg/liter 1-propanol and 18 mg/liter 1-butanol after 40 h (FIG. 60). KS145 with pSA55 only, where Kivd utilizes endogenous 2-keto acids, produced 40 mg/liter 1-propanol and 10 mg/liter 1-butanol under the same condition. KS145 without pSA55 and pSA63 produced neither 1-propanol nor 1-butanol (FIG. 60). Note that the yeast extract was added to the medium to boost the cell density.
1-Propanol and 1-butanol production was tested with the selected CimA variants in KS145 by replacing pSA63 with corresponding plasmids (Table 19) containing various cimA mutants. […] The production of 1-propanol and 1-butanol from the strain with CimA2 increased 3.9- and 4.3-fold, respectively, compared to the strain with the wild-type CimA.

JCL260 [4] = assay: α-keto acid production with IPMS variants; assay type: cell-based, E. coli
Procedure: All α-keto acid experiments were done under oxygen ‘rich’ conditions unless otherwise noted. For oxygen rich experiments, 10 mL cultures in 250 mL baffled shake flasks were inoculated 1% from 3 mL overnight cultures in LB. For oxygen poor experiments, 10 mL cultures were inoculated in 125 mL screw caps as previously described. All cultures were grown at 37° C. for 4 hours and induced with 1 mM IPTG and harvested after 18 hrs of growth at 30° C.
For other secreted metabolites, filtered supernatant was applied (20 ul) to an Agilent 1100 HPLC equipped with an auto-sampler (Agilent Technologies) and a BioRad (Biorad Laboratories, Hercules, Calif.) Aminex HPX87 column (5 mM H2SO4, 0.6 ml/min, column temperature at 65° C.). Glucose was detected with a refractive index detector, while organic acids were detected using a photodiode array detector at 210 nm. Concentrations were determined by extrapolation from standard curves.
In order to investigate this hypothesis, the production of the α-keto acid precursors, the substrates for kivd, to isobutanol and 3-methyl-1-butanol were examined. […] In hopes of increasing the KIC pool, the expression level of leuA was increased by changing the RBS from its native sequence to a more consensus sequence.
Isopropylmalate synthase (IPMS) catalyzes the condensation of KIV with acetyl-CoA. […] To relieve the feedback inhibition of the leuA gene product, two strategies were employed. A feedback insensitive mutant of IPMS (IPMS (G462D)) was employed. Second, the final step in the L-leucine synthesis pathway was inactivated by deleting ilvE (branched-chain amino acid transferase) and tyrB (tyrosine aminotransferase), two isozymes responsible for converting α-ketoisocaproate into L-leucine.

JCL260 [5] = assay type: cell-based, E. coli; conditions: for 3-methyl-1-butanol final titer / isobutanol accumulation: ilvE+ tyrB+ background
Procedure: Final production experiments were conducted as previously described, except that 20 mL modified M9 media containing 5 g/L of glucose was used in a 250 mL screw cap flask.
Metabolite Detections. The produced alcohol compounds were quantified by a gas chromatograph (GC) equipped with flame ionization detector. The system consisted of model 5890A GC (Hewlett-Packard, Avondale, Pa.) and a model 7673A automatic injector, sampler and controller (Hewlett-Packard). Supernatant of culture broth ([…]) was injected in split injection mode (1:15 split ratio) using methanol as the internal standard.
The separation of alcohol compounds was carried out by A DB-WAX capillary column (30 m, 0.32 mm-i.d., 0.50 μm-film thickness) purchased from Agilent Technologies (Santa. Clara, Calif.). GC oven temperature was initially held at 40° C. for 5 min and raised with a gradient of 15° C./min until 120° C. It was then raised with a gradient 50° C./min until 230° C. and held for 4 min. Helium was used as the carrier gas with 9.3 psi inlet pressure. The injector and detector were maintained at 225° C. 0.5 ul supernatant of culture broth was injected in split injection mode with a 1:15 split ratio. Methanol was used as the internal standard.

[6] = KS145 with pSA55 and pSA63 (cimA-leuABCD) or its variations
[7] = KS145 with pSA55 and pSA63 variations

CC(C)CO [isobutanol]
isobutanol concentration that inhibited the strain [1]: 1.5%
isobutanol concentration in the presence of which mutants grow ([1]; mutants after 5 rounds of culture transfers with increasing isobutanol concentrations): 2%

B1: WT: wild-type citramalate synthase CimA from M. jannaschii (SEQ ID NO:89) (protein, listed as Methanocaldococcus jannaschii)
chain: MMVRIFDTTLRDGEQTPGVSLTPNDKLEIAKKLDELGVDVIEAGSAITSKGEREGIKLITKEGLNAEICSFVRALPVDIDAALECDVDSVHLVVPTSPIHMKYKLRKTEDEVLETALKAVEYAKEHGLIVELSAEDATRSDVNFLIKLFNEGEKVGADRVCVCDTVGVLTPQKSQELFKKITENVNLPVSVHCHNDFGMATANTCSAVLGGAVQCHVTVNGIGERAGNASLEEVVAALKILYGYDTKIKMEKLYEVSRIVSRLMKLPVPPNKAIVGDNAFAHEAGIHVDGLIKNTETYEPIKPEMVGNRRRIILGKHSGRKALKYKLDLMGINVSDEQLNKIYERVKEFGDLGKYISDADLLAIVREVTGKLVEEKIKLDELTVVSGNKITPIASVKLHYKGEDITLIETAYGVGPVDAAINAVRKAISGVADIKLVEYRVEAIGGGTDALIEVVVKLRKGTEIVEVRKSDADIIRASVDAVMEGINMLLN
1-butanol produced (KS145 [2]): about 21 mg/L
1-propanol produced (KS145 [2]): about 350 mg/L
Production of 1-Butanol (KS145 [3]; [6]): 18 mg/L
Production of 1-Propanol (KS145 [3]; [6]): 302 mg/L
1-Butanol change (fold) relative to the strain containing wild-type CimA (KS145 [3]; [7]): 1 fold
1-Propanol change (fold) relative to the strain containing wild-type CimA (KS145 [3]; [7]): 1 fold

B2: IPMS (G462D): feedback insensitive mutant of isopropylmalate synthase (leuA gene product) (protein, UniProt P09151 2-523, looked up, variant G462D)
2-isopropylmalate synthase: SQQVIIFDTTLRDGEQALQASLSVKEKLQIALALERMGVDVMEVGFPVSSPGDFESVQTIARQVKNSRVCALARCVEKDIDVAAESLKVAEAFRIHTFIATSPMHIATKLRSTLDEVIERAIYMVKRARNYTDDVEFSCEDAGRTPIADLARVVEAAINAGATTINIPDTVGYTMPFEFAGIISGLYERVPNIDKAIISVHTHDDLGLAVGNSLAAVHAGARQVEGAMNGIGERAGNCSLEEVIMAIKVRKDILNVHTAINHQEIWRTSQLVSQICNMPIPANKAIVGSGAFAHSSGIHQDGVLKNRENYEIMTPESIGLNQIQLNLTSRSGRAAVKHRMDEMGYKESEYNLDNLYDAFLKLADKKGQVFDYDLEALAFIGKQQEEPEHFRLDYFSVQSGSNDIATAAVKLACGEEVKAEAANGNGPVDAVYQAINRITEYNVELVKYSLTAKGHGKDALDQVDIVANYNGRRFHGVGLATDIVESSAKAMVHVLNNIWRAAEVEKELQRKAQHNENNKETV
KIC final concentration (JCL260 [4]): 1.61 g/L
KIV accumulation (JCL260 [4]; JCL260 background, ilvE+ tyrB+): 0.17 g/L
KIC production (JCL260 [4]; ΔilvE background): 2.31 g/L
KIC production (JCL260 [4]; ΔilvE ΔtyrB background): 1.95 g/L
3-methyl-1-butanol final titer (JCL260 [5]): 459 mg/L
isobutanol accumulation (JCL260 [5]): 15 mg/L

B3: WT IPMS: wild-type isopropylmalate synthase, the E. coli leuA gene product (protein, UniProt P09151 2-523, looked up)
2-isopropylmalate synthase: SQQVIIFDTTLRDGEQALQASLSVKEKLQIALALERMGVDVMEVGFPVSSPGDFESVQTIARQVKNSRVCALARCVEKDIDVAAESLKVAEAFRIHTFIATSPMHIATKLRSTLDEVIERAIYMVKRARNYTDDVEFSCEDAGRTPIADLARVVEAAINAGATTINIPDTVGYTMPFEFAGIISGLYERVPNIDKAIISVHTHDDLGLAVGNSLAAVHAGARQVEGAMNGIGERAGNCSLEEVIMAIKVRKDILNVHTAINHQEIWRTSQLVSQICNMPIPANKAIVGSGAFAHSSGIHQDGVLKNRENYEIMTPESIGLNQIQLNLTSRSGRAAVKHRMDEMGYKESEYNLDNLYDAFLKLADKKGQVFDYDLEALAFIGKQQEEPEHFRLDYFSVQSGSNDIATAAVKLACGEEVKAEAANGNGPVDAVYQAINRITEYNVELVKYSLTAKGHGKDALGQVDIVANYNGRRFHGVGLATDIVESSAKAMVHVLNNIWRAAEVEKELQRKAQHNENNKETV
KIC production (JCL260 [4]; ΔilvE background): 0.53 g/L
KIV final concentration (JCL260 [4]; ΔilvE background): 0.40 g/L
KIC production (JCL260 [4]; ΔilvE ΔtyrB background): 1.23 g/L
KIV final concentration (JCL260 [4]; ΔilvE ΔtyrB background): 0.37 g/L
3-methyl-1-butanol final titer (JCL260 [5]): 308 mg/L
isobutanol accumulation (JCL260 [5]): 169 mg/L
3-methyl-1-butanol final concentration (JCL260 [5]; ΔilvE ΔtyrB strain): 553 mg/L
isobutanol (JCL260 [5]; ΔilvE ΔtyrB strain): 42 mg/L
